# From publication PMC11503464, “Copper-61 is an advantageous alternative to gallium-68 for PET imaging of somatostatin receptor-expressing tumors: a head-to-head comparative preclinical study” (Frontiers in Nuclear Medicine, 2024)
# Assays:
# [1] = Stability of labeling solutions at room temperature by radio-HPLC; type: physicochemical; settings: labeling solution stored at room temperature
# Method: An aliquot of DOTA-TOC or NODAGA-TOC (3–6 nmol, 1 mg/ml in TraceSelect water) was diluted in 0.25–0.30 ml ammonium acetate (0.5 M, pH 8), followed by the addition of [^61Cu]CuCl2 (30–150 MBq). The reaction mixture was incubated for 15 min at 95°C (DOTA-TOC) or at room temperature (NODAGA-TOC). The pH of the reaction mixture was between 5 and 6. Quality control was performed on a Shimadzu 2020 HPLC system connected to a Berthold radio detector (Flow Star 513).
# [2] = type: physicochemical; settings: pH 7.4
# Method: Briefly, the radiotracer (10 µl, 1 µM) was added to 1 ml of a 1:1 pre-saturated mixture of 1-octanol and phosphate-buffered saline (PBS pH 7.4). The solution was vortexed for 30 min and then centrifuged at 3,000 rpm to achieve phase separation. Aliquots of 0.1 ml from each phase were collected and measured in a γ-counter. The distribution coefficient was calculated as the average of the logarithmic values (n = 3) of the ratio between the radioactivity in the organic and PBS phases. [^68Ga]Ga-DOTA-TOC was used as a reference.
# HEK-SST2 cells [3] = experiment: Cellular uptake and distribution on intact HEK-SST2 cells; type: cell-based, human; settings: specific uptake, after 4 h at 37°C
# Method: At the defined time points, the medium was removed, and the cells were washed twice with ice-cold PBS. The cells were then treated twice for 5 min with ice-cold glycine solution (0.05 M, pH 2.8) to detach the cell membrane-bound fraction (acid released). Afterward, the cells containing the internalized fraction were detached using NaOH 1 M at 37°C and collected for measurement. [^68Ga]Ga-DOTA-TOC was evaluated as a reference.
# HEK-SST2 cells [4] = experiment: Efflux from HEK-SST2 cells; type: cell-based, human
# Method: The efflux was studied after 1 h incubation of the cells with the radiotracer at 37°C and the removal of the unbound fraction and the cell membrane-bound fraction, as described above (acid-wash). The cells were then incubated with fresh medium at 37°C either alone or with a competitor (1,000-fold excess of DOTA-TOC, 2.5 µM/well) for 10, 20, 30, 45, 60, 90, 120, 150, 180, and 240 min. At each time point, the efflux (or retention) was measured after the removal of the medium without or with the competitor and replacement with fresh pre-warmed (37°C) medium alone or with the competitor. At the end of the experiment, the cells were detached using 1 M NaOH at 37°C and collected to determine the remaining cell-associated radiotracer.
# HEK-SST2 xenografts [5] = experiment: PET/CT in vivo specificity (DOTA-TOC pre-injection) in HEK-SST2 xenografts; set-up: species or system mice; settings: PET/CT 1 h p.i.
# Method: The mice were anesthetized with 1.5% isoflurane and dynamic PET scans were acquired from 0 to 1 h post-injection (p.i.). The mice were euthanized by CO2 at 4 h p.i., their bladders were mechanically emptied, and static PET scans were acquired for 30 min. […] The PET images were acquired in list mode using a small-animal PET scanner (β-CUBE, Molecubes, Ghent, Belgium) with a spatial resolution of 0.85 mm and an axial field-of-view of 13 cm. All PET scans were decay corrected and reconstructed into a 192 × 192 × 384 matrix by an ordered subsets maximization expectation (OSEM) algorithm using 30 iterations, a voxel size of 400 µm × 400 µm × 400 µm, and15 min per frame. Computed tomography (CT) data was used to apply attenuation correction on the PET data. The CT was imaged supine, headfirst, using the nanoSPECT/CT™ scanner (Bioscan Inc.). Topograms and helical CT scans of the whole mouse were first acquired using the following parameters: x-ray tube current: 177 µA, x-ray tube voltage 45 kVp, 90 s, and 180 frames per rotation, pitch 1. […] The specificity of the ^61Cu-labeled tracers was assessed in HEK-SST2 xenografts by administering DOTA-TOC (100 µl/200 nmol) 2–5 min pre-injection, followed by the injection of the radiotracer (100 µl/200 pmol/4 MBq). […]
# HEK-SST2 xenografts [6] = settings: female, athymic nude-Foxn1^nu/Foxn1^+, mouse, in vivo, 200 pmol, 1 h
compound,measurement,setting,value
C[C@@H](O)[C@@H]1NC(=O)[C@H](CCCCN)NC(=O)[C@@H](Cc2c[nH]c3ccccc23)NC(=O)[C@H](Cc2ccc(O)cc2)NC(=O)[C@@H](NC(=O)[C@@H](Cc2ccccc2)NC(=O)CN2CCN(CC(=O)O)CCN(CC(=O)O)CCN(CC(=O)O)CC2)CSSC[C@@H](C(=O)N[C@H](CO)[C@@H](C)O)NC1=O [[^61Cu]Cu-DOTA-TOC] [metal not drawn],Radiochemical purity (%) 2 h,[1]; 2 h after end of synthesis,96 ± 1%
same,Radiochemical purity (%) 4 h,[1]; 4 h after end of synthesis,95 ± 1%
same,log D(O/PBS pH 7.4),[2],−2.81 ± 0.29
same,Cellular uptake (surface bound + internalized),HEK-SST2 cells [3],78.3 ± 1.3%
same,Efflux plateau in the absence of a competitor,"HEK-SST2 cells [4]; after 2 h, 37°C, no further increase at 4 h",approximately 40%
same,Efflux with competitor,"HEK-SST2 cells [4]; after 4 h at 37°C, DOTA-TOC (competitor) added to the medium",80%
same,Abdominal uptake (liver and intestine) after high excess DOTA-TOC pre-injection,HEK-SST2 xenografts [5],not suppressed
same,Heart uptake,HEK-SST2 xenografts [6],0.63 ± 0.07 %IA/g
same,Intestine uptake,HEK-SST2 xenografts [6],2.94 ± 0.15 %IA/g
same,Liver uptake,HEK-SST2 xenografts [6],3.59 ± 0.49 %IA/g
